These results are taken from patent US20170015738A1.

The target in assay [1] is hyperphosphorylated tau phosphorylated at serine 396 in human Alzheimer brain (extracts and sections) (human) (UniProt P10636). The assay is described as follows: immunodepletion of Alzheimer brain extract; western blot. For orientation: A western blot detects proteins with antibodies after separation by electrophoresis.
The target in assay [2] is total tau in Alzheimer brain extract (human) (UniProt P10636). The description is as above.
total tau in Alzheimer brain extract (human), sequence (P10636 other isoform, or with tags, fused parts or gaps limits assumed): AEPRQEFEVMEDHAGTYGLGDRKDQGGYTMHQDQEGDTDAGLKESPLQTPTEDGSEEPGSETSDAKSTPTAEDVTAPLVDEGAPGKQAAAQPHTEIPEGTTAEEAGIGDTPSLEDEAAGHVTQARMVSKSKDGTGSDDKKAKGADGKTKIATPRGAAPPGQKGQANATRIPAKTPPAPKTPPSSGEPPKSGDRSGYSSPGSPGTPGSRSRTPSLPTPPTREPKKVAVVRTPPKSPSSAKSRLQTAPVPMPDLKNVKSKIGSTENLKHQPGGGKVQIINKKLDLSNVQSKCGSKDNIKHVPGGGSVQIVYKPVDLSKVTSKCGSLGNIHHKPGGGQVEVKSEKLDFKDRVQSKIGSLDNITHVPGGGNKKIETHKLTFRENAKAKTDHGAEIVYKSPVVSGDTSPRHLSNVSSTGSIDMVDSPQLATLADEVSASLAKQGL
The target in assay [3] is aggregated Tau in Alzheimer brain extract (Cisbio assay) (human) (UniProt P10636). The assay is described as follows: immunodepletion of AD extract; Cisbio tau aggregation assay; in comparison to hHel antibody.
aggregated Tau in Alzheimer brain extract (Cisbio assay) (human), sequence (P10636 other isoform, or with tags, fused parts or gaps limits assumed): as above
Assay [4] concerns the target pathological hyperphosphorylated tau from human Alzheimer's disease brain, sarkosyl-insoluble P3 fraction (human) (UniProt P10636). The assay is described as follows: MSD ELISA on immobilised P3 tau; ratio of binding to AD over healthy control at saturation.
Assay [5] concerns the target hyper-phosphorylated P301L mutant human 4R0N tau from rTg4510 mouse brain (64 and 70 kDa species; P3 / brain extract) (human) (UniProt P10636). The assay is described as follows: MSD ELISA on immobilised P3; ratio of binding to Tg4510 over wt mouse material.

HJ8.5 (antibody), sequence (VH): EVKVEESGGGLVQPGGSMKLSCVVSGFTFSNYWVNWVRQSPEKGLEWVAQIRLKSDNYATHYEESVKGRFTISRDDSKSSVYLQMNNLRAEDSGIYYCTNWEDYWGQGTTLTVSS
HJ8.5 (antibody), sequence (VL): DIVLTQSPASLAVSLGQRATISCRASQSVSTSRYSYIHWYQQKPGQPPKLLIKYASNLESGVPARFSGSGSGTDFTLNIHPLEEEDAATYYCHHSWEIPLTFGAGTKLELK
hyperphosphorylated tau phosphorylated at serine 396 in human Alzheimer brain (extracts and sections) (human), sequence (P10636 other isoform, or with tags, fused parts or gaps limits assumed): as the sequence (P10636 other isoform, or with tags, fused parts or gaps limits assumed) above
pathological hyperphosphorylated tau from human Alzheimer's disease brain, sarkosyl-insoluble P3 fraction (human), sequence (P10636 other isoform, or with tags, fused parts or gaps limits assumed): as above
hyper-phosphorylated P301L mutant human 4R0N tau from rTg4510 mouse brain (64 and 70 kDa species; P3 / brain extract) (human), sequence (P10636 other isoform, or with tags, fused parts or gaps P301L P301L): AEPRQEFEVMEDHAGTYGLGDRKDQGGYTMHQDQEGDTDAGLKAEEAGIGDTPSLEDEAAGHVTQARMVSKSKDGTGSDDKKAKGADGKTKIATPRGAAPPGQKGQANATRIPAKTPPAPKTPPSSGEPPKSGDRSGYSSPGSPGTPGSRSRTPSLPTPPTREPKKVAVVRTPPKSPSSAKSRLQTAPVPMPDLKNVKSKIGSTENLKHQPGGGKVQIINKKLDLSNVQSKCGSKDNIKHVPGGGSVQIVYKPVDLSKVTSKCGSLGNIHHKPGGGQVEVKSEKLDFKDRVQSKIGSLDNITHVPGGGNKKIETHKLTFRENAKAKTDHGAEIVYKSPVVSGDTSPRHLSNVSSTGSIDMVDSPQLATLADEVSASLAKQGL

As for HJ8.5 (antibody), the percent removed by immunodepletion in assay [1] worked out at 88%; in assay [2], 89%. This substance showed a percent of aggregated Tau removed in assay [3] of 99%. Further, the AD/ctrl in assay [4] turned out to be 3 fold. Moreover, in assay [5], the TG/wt is 51 fold.
